The values that follow come from the DeepSol protein solubility set.

This data set can be described thus: soluble on expression in E. coli; label from the status in PepcDB or PDB records.
In the case of “MNDFTTEIVQTLVTKGDLNELFRSHLEKAINTLLRTELTAFLDYEKYDRTGFNSGNSRNGSYFRSIKTEYGELTLEIPRDRNGEFKQQTLPAYKRTNDTLETTIIHLFEKGVTMSEIADLIEKMYGHHYTPQTMSNMTKVLTEEVNAFKSRALNDKYVAIFMDATYIPLKRQTVSKEAIYIAIGIREDGTKEVLSYAIAPTESTYVWNELLQDINSRGVQEVLLFITDGLKGMKDTIHQIYPKAKYQHCCIHVSRNIAHKVRVKDRKEICDDFKAVYQANSKEEANTFLSGMIEKWKKNYPKVTQSLIENQDLLTFYDFPPSIRRTIYSTNLIESFNKQIKRYSRRKEQFQNEESLERFLVSIFDTYNQKFLNRSHKGFQQVTDTLVSMFTE”, the “soluble on expression in E. coli” value is “not soluble”.
Turning to “GMHHQRKTHVDNNIAAVELAKAYRLLNHGPTVLVSARSQGIDNVMAAAWCCALDFAPPKLTVVLDKMTKTREFIEQSGMFVIQVPTVAQLQLTHRVGSQSLADDANKLLNCGVELFEMAGHDLPFVAGCSAWLACKLIPEPNNQLQYDLFIAEVIGAWADTQVFNHGHWHFDTAPADKRSLHYIAGGQFYAIGESFNAD”, the “soluble on expression in E. coli” value is recorded as “soluble”.
The same measure for “MSFQLHPDTTLDVVHLYVSNVKKSLEFYTEVLSMKVLKEEEAVVTFGNENDEPLLIIEEKKEAFPKQRGRTGLYHYAILLPSRQDLANVLRHLVEMVYPLHGGADHYFSEALYLADPDGNGIEIYHDRQKEVWRDENGELPFVSNPLAGEELLQQGSTWNGFPAGTVMGHIHFHVADLEEAKCFYVDGLGFEVTIPARNGALFVSAGGYHHHIGLNTWQGEGVPPQMPGSVGLKYFTIVLADEKQKEQVCESLKNIGKIATYKDGILQVEDPFGHCIHFKIKGEA”: “not soluble”; for “MPIASYAQELKLALHQYPNFPSEGILFEDFLPIFRNPGLFQKLIDAFKLHLEEAFPEVKIDYIVGLESRGFLFGPTLALALGVGFVPVRKAGKLPGECFKATYEKEYGSDLFEIQKNAIPAGSNVIIVDDIIATGGSAAAAGELVEQLEANLLEYNFVMELDFLKGRSKLNAPVFTLLNAQKEALKK”: “soluble”; for “MGSDKIHHHHHHMLATYLKSLNENDRSLYNEGEDVIQGLIQSPKTLPPKYFYDDYGSELFEQICELSEYYPTRTEAWILRQYADEIAQITGNCELVELGSGSSTKTLFLLDAYQKIASHCRYIPIDVSHGILKSSVLKLQQKYPNFFVEGLIGTYEQALIKLESTFAASRMIFFLGSSLGNFNPRECDDFLRQITRTLQAGDYFLLGIDLQKPKEILEPAYNDSQGVTAAFNLNILSHLNWRFQGNFDLSLFTHQAIYNENDAQIEMYLHCQKSHEVSLEALDLQVSFAGGESILTEISRKFDLVNMQKQLETHGLKTLKTWTDPNQWFGLILCQA”: “not soluble”.
Consider “VMPFTEHDKIILRSYEAVVDGIASLIGPFCEIVLHSLEDLNTSAIKIANGENTGRQVGSPITDLALKMLKDIEGSERNFSRSYFTRAKGGVLMKSITVAIRNGENRVIGLLCINVNLDAPFSQVLQSFMPTQEAKEAA”, for which the “soluble on expression in E. coli” value is “soluble”.
The same measure for “MRPDDKYHEKQAQVEATKLKQKVEALSPGDRQQIYEKGLELRSQQSKPQDASCLPALKVSDIEPTIPVTELDVVLTAGDIPVQYCAQPTNGMVYFRAFSSLNTLPEELRPYVPLFCSVLTKLGCGLLDYREQAQQIELKTGGMSASPHVLPDDSHMDTYEQGVLFSSLCLDRNLPDMMQLWSEIFNNPCFEEEEHFKVLVKMTAQELANGIPDSGHLYASIRAGRTLTPAGDLQETFSGMDQVRLMKRIAEMTDIKPILRKLPRIKKHLLNGDNMRCSVNATPQQMPQTEKAVEDFLRSIGRSKKERRPVRPHTVEKPVPSSSGGDAHVPHGSQVIRKLVMEPTFKPWQMKTHFLMPFPVNYVGECIRTVPYTDPDHASLKILARLMTAKFLHTEIREKGGAYGGGAKLSHNGIFTLYSYRDPNTIETLQSFGKAVDWAKSGKFTQQDIDEAKLSVFSTVDAPVAPSDKGMDHFLYGLSDEMKQAHREQLFAVSHDKLLAVSDRYLGTGKSTHGLAILGPENPKIAKDPSWIIR”: “not soluble”.
The value for “MPVAEQPYHHGSLRRVLLARAESTLEKDGVDGLSLRQLAREAGVSHAAPSKHFRDRQALLDALAESGFLRLTAALERAVEEAESHARARFAALAGAYVSFALAHRELLALMYGNKHAPGAASQVVEAGHASMDLTVRIVTEAQAAGDIGPGDASRIALVAFATFHGIATLAAGGMLDGAPVDEVVTAASDTFWRGLAQA” was “soluble”; that for “MDMDREQSVQHFLDLIKKSHRGKFKIYIGMIAGVGKSYRMLQEAHELLENGVDVQIGYIETHGRAGTEALMQGLPVIPRRKIFYKGKELEEMDVDAIIRLHPEIVIVDELAHTNVEGSLNEKRWQDVMTLLDEGINVISAINIQHIESVNEEVQEITGIEVKERVPDSVLQEADEVVNIDLTAEELISRLKAGKIYRPEKIQTALDNFFRTENILQLRELALKEVALRVEKKVENEVVMGVSVGIRHEKFMACISSHEKTPRRIIRKAARLATRYNTTFVALYVQTPRESMDRIDLASQRYLLNHFKLVAELGGEVIQVQSKDILGSIVKVCRDKQISSVCMGTPNLRFPHAICSILGYRKFLNNLSQANVDLIILA” was “not soluble”.
The value for “GSLSLIRKKGFYKQDVNKTAWELPKTYVSPTHVGSGAYGSVCSAIDKRSGEKVAIKKLSRPFQSEIFAKRAYRELLLLKHMQHENVIGLLDVFTPASSLRNFYDFYLVMPFMQTDLQKIMGMEFSEEKIQYLVYQMLKGLKYIHSAGVVHRDLKPGNLAVNEDCELKILDFGLARHADAEMTGYVVTRWYRAPEVILSWMHYNQTVDIWSVGCIMAEMLTGKTLFKGKDYLDQLTQILKVTGVPGTEFVQKLNDKAAKSYIQSLPQTPRKDFTQLFPRASPQAADLLEKMLELDVDKRLTAAQALTHPFFEPFRDPEEETEAQQPFDDSLEHEKLTVDEWKQHIYKEIVNFSPIARKDSRV” was “soluble”; that for “MCIGVPVQVISPGQWFAKCRDRHGELIDVDIRLVAPPLAGAWLLTFGGAARREMDEAEAAEVLAALDSLEQAMLTQSDPLTGFADLLSRTPELPEHLKK” was “not soluble”; that for “MSLKSSEQMRALFPDHPEACDNTLLLTEMIGSYDEVFKYVDRMPQFDVPEGETQESWLRKKLQEGLDEKFGPNPPKEVLERLETELSVIEPLGFASYFLVVSDICNAARSMGVPVGPGRGSAAGSLVAYLTGIIAINPLEHGLLFERFLNPERVNPPDIDLDFDDRQRDKVIDYVTHKYGAEYTSQVNTFGKIKAKAAVKDANRILGYPFALGDKITKAMPPDVMGKGVPLDKIFDSSHERYGEGQEFRQLVADNPDVAKVVETAKGLEGLIRGTGVHACAFILSSTPLLDLVPMHKRDKDGMIIAGFAYPQLEEMGLMKMDFLGLRNLGIMDHCIKIIKANRGIDVDLKNIALDDKTTYEMLARGDTLGVFQLDGTAMRSLLRLMGPTCFDDIVAVLALYRPGPMGANAHISYAQRKNNREPIIPIHPELKEDLDEILAPTYHLIVYQEQIMSIARKLAGYTLGGADLLRRAMGKEGHHHHHH” was “soluble”.
On to “MAFALWYSLQERAPVVERSLKVPLQVVGLGEGRRALGLPREVLLRLRGPAPLLEGRALPVSAYLDLSGAEGEVVREVRVAAPQGVEVLEVVPARVGVVVEVEAQRQIPVEVLAQGAWVLTDPAFVEAVGPESQVEAAVSAVGLDLGDEVVLFPFGPEGPLEGVELRPNRVRVVERREALFLKEVPLSLKPPPGRRLLDYAPKTVRLVGPREALEGLAGVAATLQEALGPGEVEVAVAPDLPPGVQTLGPVRVRVALE”, for which the “soluble on expression in E. coli” value is “soluble”.
As for “MFISVLDLFKIGIGPSSSHTMGPMTAANVFRDHVDQLVSQTPDDLNYRVYCVLKGSLAFTGRGHATDRAVALGLHGHSPVSLAGEDVNALTAKLWATDTLQLTSGREIGFNPEDDIVFDKSDPLPQHPNGMIFYLLDEEGKKILSETFFSIGGGFICTLAEINQ”, the “soluble on expression in E. coli” value was “not soluble”.
The value for “GSHMTREMRILILGLDGAGKTTILYRLQVGEVVTTIPTIGFNVETVTYKNLKFQVWDLGGLTSIRPYWRCYYSNTDAVIYVVDSCDRDRIGISKSELVAMLEEEELRKAILVVFANKQDMEQAMTSSEMANSLGLPALKDRKWQIFKTSATKGTGLDEAMEWLVETLKSRQ” was “soluble”; that for “LRKQVELLFNTRYAKAIGISEPVKVPYSKFLMHPEELFVVGLPEGISLRRPNCFGIAKLRKILEASNSIQFVIKRPELLTEGVKEP” was “soluble”.
